Test results from publication PMC6234840 (Nature, 2018).

Target: GST-eIF3h (human, UniProt O15372 1-352)
Assay: pull-down

Sequence of GST-eIF3h (O15372 whole entry): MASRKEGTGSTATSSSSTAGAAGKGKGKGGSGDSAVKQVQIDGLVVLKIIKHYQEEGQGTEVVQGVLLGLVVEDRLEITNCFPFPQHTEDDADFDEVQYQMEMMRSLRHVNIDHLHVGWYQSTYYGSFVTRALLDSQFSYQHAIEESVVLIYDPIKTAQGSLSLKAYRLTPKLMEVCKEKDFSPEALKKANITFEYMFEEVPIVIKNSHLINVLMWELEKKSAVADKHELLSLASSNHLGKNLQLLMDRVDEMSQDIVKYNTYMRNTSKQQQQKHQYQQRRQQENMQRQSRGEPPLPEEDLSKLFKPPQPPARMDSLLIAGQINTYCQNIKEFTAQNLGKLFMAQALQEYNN

B1: His-METTL3 1-200 amino acid fragment (domain or fragment)
chain: MSDTWSSIQAHKKQLDSLRERLQRRRKQDSGHLDLRNPEAALSPTFRSDSPVPTAPTSGGPKPSTASAVPELATDPELEKKLLHHLSDLALTLPTDAVSICLAISTPDAPATQDGVESLLQKFAAQELIEVKRGLLQDDAHPTLVTYADHSKLSAMMGAVAEKKGPGEVAGTVTGQKRRAEQDSTTVAAFASSLVSGLNS
Does B1 bind?
Result: binds
